Measured values from patent US20120149875A1.

Key:
[1] = molecular target: Fc-Fusion Protein (human soluble TNFα receptor linked to the Fc component of human immunoglobulin G1) (human) [IgG part: P01857]; assay: frontal analysis with CHO supernatant feed, fractions analysed on HiTrap MabSelect SuRe, residence time 2.4 min
[2] = molecular target: Fc-Fusion Protein (human soluble TNFα receptor linked to the Fc component of human immunoglobulin G1) (human) [IgG part: P01857]; assay: frontal analysis with CHO supernatant feed, fractions analysed on HiTrap MabSelect SuRe, residence time 6 min
[3] = molecular target: Fc-Fusion Protein (human soluble TNFα receptor linked to the Fc component of human immunoglobulin G1) (human) [IgG part: P01857]; assay: frontal analysis with CHO supernatant feed, Z4 medium of low ligand density, residence time 6 min
[4] = molecular target: Fc-Fusion Protein (human soluble TNFα receptor linked to the Fc component of human immunoglobulin G1) (human) [IgG part: P01857]; assay: frontal analysis with CHO supernatant feed, Z4 medium of low ligand density, residence time 2.4 min

Substance: Z4, tetramer of alkaline stabilized protein A (SuRe ligand domain / Z domain), MabSelect SuRe (designed binder)
- DBC10% (dynamic binding capacity at 10% breakthrough) [1]: 6 mg/mL
- DBC10% (dynamic binding capacity at 10% breakthrough) [2]: 10 mg/mL
- DBC10% (dynamic binding capacity at 10% breakthrough) [3]: 9 mg/mL
- DBC10% (dynamic binding capacity at 10% breakthrough) [4]: 5 mg/mL
